B1: Asc-type amino acid transporter 1 (Homo sapiens), Q9NS82 (parent)
chain: MAGHTQQPSGRGNPRPAPSPSPVPGTVPGASERVALKKEIGLLSACTIIIGNIIGSGIFISPKGVLEHSGSVGLALFVWVLGGGVTALGSLCYAELGVAIPKSGGDYAYVTEIFGGLAGFLLLWSAVLIMYPTSLAVISMTFSNYVLQPVFPNCIPPTTASRVLSMACLMLLTWVNSSSVRWATRIQDMFTGGKLLALSLIIGVGLLQIFQGHFEELRPSNAFAFWMTPSVGHLALAFLQGSFAFSGWNFLNYVTEEMVDARKNLPRAIFISIPLVTFVYTFTNIAYFTAMSPQELLSSNAVAVTFGEKLLGYFSWVMPVSVALSTFGGINGYLFTYSRLCFSGAREGHLPSLLAMIHVRHCTPIPALLVCCGATAVIMLVGDTYTLINYVSFINYLCYGVTILGLLLLRWRRPALHRPIKVNLLIPVAYLVFWAFLLVFSFISEPMVCGVGVIIILTGVPIFFLGVFWRSKPKCVHRLTESMTHWGQELCFVVYPQDAPEEEENGPCPPSLLPATDKPSKPQ
partner: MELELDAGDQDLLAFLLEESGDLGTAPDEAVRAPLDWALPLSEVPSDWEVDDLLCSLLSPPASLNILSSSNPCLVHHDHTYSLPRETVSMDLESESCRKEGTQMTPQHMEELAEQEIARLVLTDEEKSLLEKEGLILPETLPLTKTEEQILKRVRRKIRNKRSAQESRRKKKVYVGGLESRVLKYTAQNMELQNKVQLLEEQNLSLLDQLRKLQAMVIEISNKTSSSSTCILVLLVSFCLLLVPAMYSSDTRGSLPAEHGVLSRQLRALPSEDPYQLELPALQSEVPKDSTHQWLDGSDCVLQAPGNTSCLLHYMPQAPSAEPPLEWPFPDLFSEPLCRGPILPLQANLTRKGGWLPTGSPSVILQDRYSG
B2: Protein LDOC1 (Homo sapiens), O95751 (parent)
chain: MVDELVLLLHALLMRHRALSIENSQLMEQLRLLVCERASLLRQVRPPSCPVPFPETFNGESSRLPEFIVQTASYMLVNENRFCNDAMKVAFLISLLTGEAEEWVVPYIEMDSPILGDYRAFLDEMKQCFGWDDDEDDDDEEEEDDY
partner: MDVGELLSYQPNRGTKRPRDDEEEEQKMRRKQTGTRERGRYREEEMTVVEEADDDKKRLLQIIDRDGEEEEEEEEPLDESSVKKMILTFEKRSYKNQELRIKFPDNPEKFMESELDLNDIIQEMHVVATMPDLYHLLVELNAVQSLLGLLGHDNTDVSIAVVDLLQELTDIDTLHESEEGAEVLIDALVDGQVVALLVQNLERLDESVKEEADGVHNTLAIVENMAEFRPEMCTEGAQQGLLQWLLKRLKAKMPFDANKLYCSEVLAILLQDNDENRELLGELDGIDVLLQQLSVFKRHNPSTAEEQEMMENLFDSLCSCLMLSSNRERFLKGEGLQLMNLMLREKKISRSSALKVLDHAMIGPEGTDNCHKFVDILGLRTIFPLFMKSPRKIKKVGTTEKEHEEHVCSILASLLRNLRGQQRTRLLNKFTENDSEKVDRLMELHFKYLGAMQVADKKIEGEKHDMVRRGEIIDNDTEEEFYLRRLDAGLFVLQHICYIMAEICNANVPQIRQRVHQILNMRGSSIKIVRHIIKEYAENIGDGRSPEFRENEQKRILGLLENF
B3: Protein DBF4 homolog B (Homo sapiens), Q8NFT6 (parent)
chain: MSEPGKGDDCLELESSMAESRLRAPDLGVSRCLGKCQKNSPGARKHPFSGKSFYLDLPAGKNLQFLTGAIQQLGGVIEGFLSKEVSYIVSSRREVKAESSGKSHRGCPSPSPSEVRVETSAMVDPKGSHPRPSRKPVDSVPLSRGKELLQKAIRNQGSISGGGSGGSSSLLTNARSWGVRILHVDEMMMHVQQLSLASLCVKKQQPKKPEGTCPAAESRTRKVARLKAPFLKIEDESRKFRPFHHQFKSFPEISFLGPKDASPFEAPTTLGSMHHTRESKDGEPSPRSAAHTMPRRKKGYCECCQEAFEELHVHLQSAQHRSFALEAHLYAEVDRIIAQLSHSFADIPFQAGLPRWSGSPASDCDPLCPETLHPHQPSHPRAASPRIRKEDSCQASVTQGRAAGQQRWTESLDGVMGPPASHTCVSATTLLPALPKGSREQGCLCPCPASFTQSHLVTSLALLPGEWSPAEDMPLHPSQENSFAPADIPVKGPLLFPEARPWLMSARCWVRPFPFVTWGCLIPHDTTPLHEEVSPCPCLRLGYLYLLLTQSLWCRVRVPSLSTAGPIPRTSHPCTLAFPSYLNDHDLGHLCQAKPQGWNTPQPFLHCGFLAVDSG
partner: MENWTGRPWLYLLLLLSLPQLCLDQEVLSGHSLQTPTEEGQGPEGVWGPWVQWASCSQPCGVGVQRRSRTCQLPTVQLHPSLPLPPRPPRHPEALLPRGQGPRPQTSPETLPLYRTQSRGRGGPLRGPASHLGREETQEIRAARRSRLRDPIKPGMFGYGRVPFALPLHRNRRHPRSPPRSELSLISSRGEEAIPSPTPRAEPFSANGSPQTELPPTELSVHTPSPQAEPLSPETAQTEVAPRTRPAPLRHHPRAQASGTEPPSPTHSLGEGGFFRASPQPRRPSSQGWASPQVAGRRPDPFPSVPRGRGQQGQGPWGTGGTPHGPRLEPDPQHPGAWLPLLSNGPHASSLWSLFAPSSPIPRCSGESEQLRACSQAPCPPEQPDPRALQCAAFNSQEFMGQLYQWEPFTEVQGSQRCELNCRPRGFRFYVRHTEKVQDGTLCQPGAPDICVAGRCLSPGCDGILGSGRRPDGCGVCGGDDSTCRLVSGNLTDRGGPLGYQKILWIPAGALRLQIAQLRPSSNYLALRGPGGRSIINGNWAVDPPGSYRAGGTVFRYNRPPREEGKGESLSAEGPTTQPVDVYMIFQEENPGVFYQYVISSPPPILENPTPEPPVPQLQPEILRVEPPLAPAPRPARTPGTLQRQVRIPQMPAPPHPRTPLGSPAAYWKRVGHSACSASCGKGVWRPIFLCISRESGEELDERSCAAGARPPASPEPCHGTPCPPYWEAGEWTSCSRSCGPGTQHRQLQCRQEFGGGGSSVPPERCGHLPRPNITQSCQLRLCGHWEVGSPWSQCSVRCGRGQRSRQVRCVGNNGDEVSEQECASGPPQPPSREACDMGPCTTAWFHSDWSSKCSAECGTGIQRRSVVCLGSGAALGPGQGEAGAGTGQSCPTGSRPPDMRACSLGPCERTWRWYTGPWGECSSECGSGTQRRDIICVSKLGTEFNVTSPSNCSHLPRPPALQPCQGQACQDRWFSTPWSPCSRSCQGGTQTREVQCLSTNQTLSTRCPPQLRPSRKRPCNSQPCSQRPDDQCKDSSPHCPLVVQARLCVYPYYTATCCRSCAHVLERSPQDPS
B4: E3 ubiquitin-protein ligase MARCHF5 (Homo sapiens), Q9NX47 (parent)
chain: MPDQALQQMLDRSCWVCFATDEDDRTAEWVRPCRCRGSTKWVHQACLQRWVDEKQRGNSTARVACPQCNAEYLIVFPKLGPVVYVLDLADRLISKACPFAAAGIMVGSIYWTAVTYGAVTVMQVVGHKEGLDVMERADPLFLLIGLPTIPVMLILGKMIRWEDYVLRLWRKYSNKLQILNSIFPGIGCPVPRIPAEANPLADHVSATRILCGALVFPTIATIVGKLMFSSVNSNLQRTILGGIAFVAIKGAFKVYFKQQQYLRQAHRKILNYPEQEEA
partner: B1 partner
B5: Katanin p60 ATPase-containing subunit A-like 1 (Homo sapiens), Q9BW62 (parent)
chain: MNLAEICDNAKKGREYALLGNYDSSMVYYQGVMQQIQRHCQSVRDPAIKGKWQQVRQELLEEYEQVKSIVSTLESFKIDKPPDFPVSCQDEPFRDPAVWPPPVPAEHRAPPQIRRPNREVRPLRKEMAGVGARGPVGRAHPISKSEKPSTSRDKDYRARGRDDKGRKNMQDGASDGEMPKFDGAGYDKDLVEALERDIVSRNPSIHWDDIADLEEAKKLLREAVVLPMWMPDFFKGIRRPWKGVLMVGPPGTGKTMLAKAVATECGTTFFNVSSSTLTSKYRGESEKLVRLLFEMARFYAPTTIFIDEIDSICSRRGTSDEHEASRRVKSELLIQMDGVGGALENDDPSKMVMVLAATNFPWDIDEALRRRLEKRIYIPLPTAKGRAELLKINLREVELDPDIQLEDIAEKIEGYSGADITNVCRDASLMAMRRRINGLSPEEIRALSKEELQMPVTKGDFELALKKIAKSVSAADLEKYEKWMVEFGSA
partner: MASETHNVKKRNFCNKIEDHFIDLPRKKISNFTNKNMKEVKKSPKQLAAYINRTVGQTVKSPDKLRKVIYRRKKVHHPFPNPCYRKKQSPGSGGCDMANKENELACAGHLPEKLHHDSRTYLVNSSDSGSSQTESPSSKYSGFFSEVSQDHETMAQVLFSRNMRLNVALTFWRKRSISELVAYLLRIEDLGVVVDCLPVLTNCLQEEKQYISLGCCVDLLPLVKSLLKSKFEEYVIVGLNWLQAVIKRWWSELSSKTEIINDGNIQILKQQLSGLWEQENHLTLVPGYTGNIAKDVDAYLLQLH

Variants of: B1
Conditions: with creb3_human CREB3, O43889

effect of a mutation on the interaction	Variant
with no effect	R413Q

Variants of: B2
Conditions: with ctbl1_human CTNNBL1, Q8WYA6

effect of a mutation on the interaction	Variant
disrupting interaction strength	L12H

Variants of: B3
Conditions: with atl4_human ADAMTSL4, Q6UY14

effect of a mutation on the interaction	Variant
with no effect	L199S

Variants of: B4
Conditions: with creb3_human CREB3, O43889

effect of a mutation on the interaction	Variant
with no effect	D202N
with no effect	T20A

Variants of: B5
Conditions: with ktbl1_human KATNBL1, Q9H079

effect of a mutation on the interaction	Variant
with no effect	A300S

Source: IntAct's records for PubMed 31515488
